This assay concerns the target cation-independent mannose-6-phosphate receptor (CIMPR). The assay is described as follows: CIMPR affinity chromatography with M6P elution gradient; spent cell culture medium before AEX product capture.

The substance “recombinant human α-galactosidase A (rhα-Gal A) (from UniProt P06280 32-429) (enzyme)” showed a percent able to bind to the CIMPR of 80%.
